± gives the uncertainty stated by the source.
B1: Proto-oncogene vav, residues 782 to 842; numbered along this chain, P15498 (parent)
chain: KYFGTAKARYDFCARDRSELSLKEGDIIKILNKKGQQGWWRGEIYGRVGWFPANYVEEDYS
B2: SAM and SH3 domain-containing protein 1, residues 630 to 700; numbered along this chain, O94885 (parent)
chain: GRPPQPKSVEDLLDRINLKEHMPTFLFNGYEDLDTFKLLEEEDLDELNIRDPEHRAVLLTAVELLQEYDSN

Variants of: B1
Experiment: abundance fitness (aPCA) (normalised: wild type 0, dead -1); higher = more abundant; growth selection in yeast, the domain comes from the species named
Conditions: Homo sapiens
Variant DYFGTAKARYDFCARDRSELSLKEGDIIKILNKKGQQGWWRGEIYGRVGWFPANYVEEDYS [K1D] has an abundance fitness of -0.437 ± 0.27.
With AYFGTAKARYDFCARDRSELSLKEGDIIKILNKKGQQGWWRGEIYGRVGWFPANYVEEDYS [K1A] the abundance fitness was -0.456 ± 0.14.

Variants of: B2
Experiment: as above
Conditions: Homo sapiens
In the case of GRPPQPKSVEDLLDRINLKEHMPTFLFNGYEDLDTFKLLEEEDLDELNIRDPEHRAVLLTAVELLQEYDSP [N71P], the abundance fitness is reported as 0.005 ± 0.051.
In the case of GRPPQPKSVEDLLDRINLKEHMPTFLFNGYEDLDTFKLLEEEDLDELNIRDPEHRAVLLTAVELLQEYDSD [N71D], the abundance fitness is reported as 0.197 ± 0.047.
GRPPQPKSVEDLLDRINLKEHMPTFLFNGYEDLDTFKLLEEEDLDELNIRDPEHRAVLLTAVELLQEYDSH [N71H] gave an abundance fitness of 0.056 ± 0.048.
Variant GRPPQPKSVEDLLDRINLKEHMPTFLFNGYEDLDTFKLLEEEDLDELNIRDPEHRAVLLTAVELLQEYDSK [N71K] has an abundance fitness of 0.007 ± 0.058.
GRPPQPKSVEDLLDRINLKEHMPTFLFNGYEDLDTFKLLEEEDLDELNIRDPEHRAVLLTAVELLQEYDSV [N71V] showed an abundance fitness of 0.035 ± 0.053.
Variant GRPPQPKSVEDLLDRINLKEHMPTFLFNGYEDLDTFKLLEEEDLDELNIRDPEHRAVLLTAVELLQEYDSI [N71I] has an abundance fitness of -0.117 ± 0.054.
Variant GRPPQPKSVEDLLDRINLKEHMPTFLFNGYEDLDTFKLLEEEDLDELNIRDPEHRAVLLTAVELLQEYDSF [N71F] has an abundance fitness of -0.117 ± 0.082.
In the case of GRPPQPKSVEDLLDRINLKEHMPTFLFNGYEDLDTFKLLEEEDLDELNIRDPEHRAVLLTAVELLQEYDSW [N71W], the abundance fitness is reported as -0.256 ± 0.087.
GRPPQPKSVEDLLDRINLKEHMPTFLFNGYEDLDTFKLLEEEDLDELNIRDPEHRAVLLTAVELLQEYDSQ [N71Q] showed an abundance fitness of 0.121 ± 0.059.
Work on GRPPQPKSVEDLLDRINLKEHMPTFLFNGYEDLDTFKLLEEEDLDELNIRDPEHRAVLLTAVELLQEYDSY [N71Y] yielded an abundance fitness of -0.132 ± 0.062.
In the case of GRPPQPKSVEDLLDRINLKEHMPTFLFNGYEDLDTFKLLEEEDLDELNIRDPEHRAVLLTAVELLQEYDSM [N71M], the abundance fitness is reported as -0.071 ± 0.072.
GRPPQPKSVEDLLDRINLKEHMPTFLFNGYEDLDTFKLLEEEDLDELNIRDPEHRAVLLTAVELLQEYDSE [N71E] gave an abundance fitness of 0.163 ± 0.074.
For GRPPQPKSVEDLLDRINLKEHMPTFLFNGYEDLDTFKLLEEEDLDELNIRDPEHRAVLLTAVELLQEYDSG [N71G], the abundance fitness was 0.041 ± 0.053.
GRPPQPKSVEDLLDRINLKEHMPTFLFNGYEDLDTFKLLEEEDLDELNIRDPEHRAVLLTAVELLQEYDSR [N71R] showed an abundance fitness of 0.087 ± 0.052.
Work on GRPPQPKSVEDLLDRINLKEHMPTFLFNGYEDLDTFKLLEEEDLDELNIRDPEHRAVLLTAVELLQEYDSC [N71C] yielded an abundance fitness of -0.009 ± 0.12.
Work on GRPPQPKSVEDLLDRINLKEHMPTFLFNGYEDLDTFKLLEEEDLDELNIRDPEHRAVLLTAVELLQEYDSA [N71A] yielded an abundance fitness of 0.116 ± 0.045.
GRPPQPKSVEDLLDRINLKEHMPTFLFNGYEDLDTFKLLEEEDLDELNIRDPEHRAVLLTAVELLQDYDSN [E67D] showed an abundance fitness of 0.02 ± 0.053.
Work on GRPPQPKSVEDLLDRINLKEHMPTFLFNGYEDLDTFKLLEEEDLDELNIRDPEHRAVLLTAVELLQKYDSN [E67K] yielded an abundance fitness of -0.094 ± 0.046.
Variant GRPPQPKSVEDLLDRINLKEHMPTFLFNGYEDLDTFKLLEEEDLDELNIRDPEHRAVLLTAVELLQRYDSN [E67R] has an abundance fitness of -0.167 ± 0.04.
For GRPPQPKSVEDLLDRINLKEHMPTFLFNGYEDLDTFKLLEEEDLDELNIRDPEHRAVLLTAVELLQWYDSN [E67W], the abundance fitness was -0.438 ± 0.06.
GRPPQPKSVEDLLDRINLKEHMPTFLFNGYEDLDTFKLLEEEDLDELNIRDPEHRAVLLTAVELLQMYDSN [E67M] gave an abundance fitness of -0.342 ± 0.049.
GRPPQPKSVEDLLDRINLKEHMPTFLFNGYEDLDTFKLLEEEDLDELNIRDPEHRAVLLTAVELLQVYDSN [E67V] showed an abundance fitness of -0.232 ± 0.044.
Work on GRPPQPKSVEDLLDRINLKEHMPTFLFNGYEDLDTFKLLEEEDLDELNIRDPEHRAVLLTAVELLQHYDSN [E67H] yielded an abundance fitness of -0.165 ± 0.047.
For GRPPQPKSVEDLLDRINLKEHMPTFLFNGYEDLDTFKLLEEEDLDELNIRDPEHRAVLLTAVELLQPYDSN [E67P], the abundance fitness was -0.457 ± 0.049.
GRPPQPKSVEDLLDRINLKEHMPTFLFNGYEDLDTFKLLEEEDLDELNIRDPEHRAVLLTAVELLQGYDSN [E67G] showed an abundance fitness of -0.107 ± 0.046.
In the case of GRPPQPKSVEDLLDRINLKEHMPTFLFNGYEDLDTFKLLEEEDLDELNIRDPEHRAVLLTAVELLQFYDSN [E67F], the abundance fitness is reported as -0.609 ± 0.063.
For GRPPQPKSVEDLLDRINLKEHMPTFLFNGYEDLDTFKLLEEEDLDELNIRDPEHRAVLLTAVELLQIYDSN [E67I], the abundance fitness was -0.492 ± 0.057.
For GRPPQPKSVEDLLDRINLKEHMPTFLFNGYEDLDTFKLLEEEDLDELNIRDPEHRAVLLTAVELLQTYDSN [E67T], the abundance fitness was -0.048 ± 0.04.
For GRPPQPKSVEDLLDRINLKEHMPTFLFNGYEDLDTFKLLEEEDLDELNIRDPEHRAVLLTAVELLQSYDSN [E67S], the abundance fitness was 0.039 ± 0.037.
GRPPQPKSVEDLLDRINLKEHMPTFLFNGYEDLDTFKLLEEEDLDELNIRDPEHRAVLLTAVELLQCYDSN [E67C] showed an abundance fitness of -0.3 ± 0.057.
With GRPPQPKSVEDLLDRINLKEHMPTFLFNGYEDLDTFKLLEEEDLDELNIRDPEHRAVLLTAVELLQYYDSN [E67Y] the abundance fitness was -0.396 ± 0.056.
Variant GRPPQPKSVEDLLDRINLKEHMPTFLFNGYEDLDTFKLLEEEDLDELNIRDPEHRAVLLTAVELLQLYDSN [E67L] has an abundance fitness of -0.468 ± 0.041.
Variant GRPPQPKSVEDLLDRINLKEHMPTFLFNGYEDLDTFKLLEEEDLDELNIRDPEHRAVLLTAVELLQNYDSN [E67N] has an abundance fitness of -0.1 ± 0.048.
GRPPQPKSVEDLLDRINLKEHMPTFLFNGYEDLDTFKLLEEEDLDELNIRDPEHRAVLLTAVELLQAYDSN [E67A] showed an abundance fitness of -0.082 ± 0.048.
Variant GRPPQPKSVEDLLDRINLKEHMPTFLFNGYEDLDTFKLLEEEDLDELNIRDPEHRAVLLTAVELLSEYDSN [Q66S] has an abundance fitness of -0.331 ± 0.039.
In the case of GRPPQPKSVEDLLDRINLKEHMPTFLFNGYEDLDTFKLLEEEDLDELNIRDPEHRAVLLTAVELLTEYDSN [Q66T], the abundance fitness is reported as -0.347 ± 0.044.

From the Human Domainome abundance scans (Beltran et al. 2025)
